The labels stand for the following.
B1: NR2F2 (parent)
chain: VAHVESLQEKSQCALEEYVRSQYP
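Further: lentivirally expressed fusions sorted by FACS into six bins by GFP to DsRed ratio, PSI derived from sequencing read proportions per bin multiplied by bin number.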

The variants in this data set derive from B1. Nature of the data set: protein stability index of a GFP-peptide fusion (GPS, HEK-293T) (PSI 1-6); higher = more stable. The conditions noted are these: c terminus: a fixed tail appended.
On to VAHVESLQEKSSCALEEYVRSQYP [Q12S], for which the protein stability index was 2.77.

As to VAHVESLQEKSACALEEYVRSQYP [Q12A], the protein stability index was found to be 3.33.

On to VAHVESLQEKSECALEEYVRSQYP [Q12E], for which the protein stability index was 4.6.

With VAHVESLQEKSICALEEYVRSQYP [Q12I], the protein stability index came to 2.49.

Consider VAHVESLQEKSYCALEEYVRSQYP [Q12Y], for which the protein stability index amounted to 2.55.

For VAHVESLQEKSCCALEEYVRSQYP [Q12C], the protein stability index amounted to 2.45.

Turning to VAHVESLQEKSGCALEEYVRSQYP [Q12G], the protein stability index was found to be 3.7.

As for VAHVESLQEKSLCALEEYVRSQYP [Q12L], the protein stability index is 2.68.

For the variant VAHVESLQEKSPCALEEYVRSQYP [Q12P], the protein stability index amounted to 3.12.

Regarding VAHVESLQEKSWCALEEYVRSQYP [Q12W], the protein stability index stood at 2.64.

As to VAHVESLQEKSTCALEEYVRSQYP [Q12T], the protein stability index came out at 2.88.

In the case of VAHVESLQEKSNCALEEYVRSQYP [Q12N], the protein stability index is 3.54.

Take VAHVESLQEKSDCALEEYVRSQYP [Q12D]: the protein stability index was found to be 4.32.

VAHVESLQEKSFCALEEYVRSQYP [Q12F]: the protein stability index stood at 2.86.

Take VAHVESLQEKSMCALEEYVRSQYP [Q12M]: the protein stability index was determined as 2.99.

For VAHVESLQEKSHCALEEYVRSQYP [Q12H], the protein stability index is 2.88.

Turning to VAHVESLQEKSVCALEEYVRSQYP [Q12V], the protein stability index is 2.83.

VAHVESLQEKSKCALEEYVRSQYP [Q12K]: the protein stability index was found to be 3.76.

For the variant VAHVESLQEKSRCALEEYVRSQYP [Q12R], the protein stability index came to 3.77.

For the variant VAHVESLQEKIQCALEEYVRSQYP [S11I], the protein stability index worked out at 2.8.

Consider VAHVESLQEKYQCALEEYVRSQYP [S11Y], for which the protein stability index is 2.36.

With VAHVESLQEKPQCALEEYVRSQYP [S11P], the protein stability index worked out at 4.04.

For the variant VAHVESLQEKAQCALEEYVRSQYP [S11A], the protein stability index stood at 4.05.

In the case of VAHVESLQEKHQCALEEYVRSQYP [S11H], the protein stability index is 3.59.

With VAHVESLQEKEQCALEEYVRSQYP [S11E], the protein stability index was 4.36.

In the case of VAHVESLQEKCQCALEEYVRSQYP [S11C], the protein stability index is 3.37.

Take VAHVESLQEKTQCALEEYVRSQYP [S11T]: the protein stability index is 3.53.

In the case of VAHVESLQEKMQCALEEYVRSQYP [S11M], the protein stability index amounted to 2.54.

On to VAHVESLQEKKQCALEEYVRSQYP [S11K], for which the protein stability index was determined as 3.41.

As to VAHVESLQEKWQCALEEYVRSQYP [S11W], the protein stability index stood at 2.61.

On to VAHVESLQEKNQCALEEYVRSQYP [S11N], for which the protein stability index turned out to be 3.88.

For the variant VAHVESLQEKFQCALEEYVRSQYP [S11F], the protein stability index came out at 1.78.

On to VAHVESLQEKDQCALEEYVRSQYP [S11D], for which the protein stability index was found to be 4.5.

As for VAHVESLQEKLQCALEEYVRSQYP [S11L], the protein stability index is 3.2.

Take VAHVESLQEKGQCALEEYVRSQYP [S11G]: the protein stability index came to 4.07.

In the case of VAHVESLQEKVQCALEEYVRSQYP [S11V], the protein stability index was 2.48.

Consider VAHVESLQEKRQCALEEYVRSQYP [S11R], for which the protein stability index is 3.12.

With VAHVESLQEKQQCALEEYVRSQYP [S11Q], the protein stability index was determined as 2.97.

As to VAHVESLQEKSQCALPEYVRSQYP [E16P], the protein stability index amounted to 3.74.

Regarding VAHVESLQEKSQCALTEYVRSQYP [E16T], the protein stability index is 3.29.

As for VAHVESLQEKSQCALQEYVRSQYP [E16Q], the protein stability index worked out at 3.68.

For the variant VAHVESLQEKSQCALAEYVRSQYP [E16A], the protein stability index was determined as 3.59.

As to VAHVESLQEKSQCALMEYVRSQYP [E16M], the protein stability index came out at 2.89.

Take VAHVESLQEKSQCALIEYVRSQYP [E16I]: the protein stability index amounted to 3.7.

VAHVESLQEKSQCALVEYVRSQYP [E16V]: the protein stability index turned out to be 3.36.

For the variant VAHVESLQEKSQCALCEYVRSQYP [E16C], the protein stability index was determined as 3.63.

With VAHVESLQEKSQCALLEYVRSQYP [E16L], the protein stability index was determined as 3.3.

As for VAHVESLQEKSQCALDEYVRSQYP [E16D], the protein stability index was found to be 3.62.

VAHVESLQEKSQCALYEYVRSQYP [E16Y]: the protein stability index worked out at 2.11.

For VAHVESLQEKSQCALHEYVRSQYP [E16H], the protein stability index came to 3.16.

Turning to VAHVESLQEKSQCALFEYVRSQYP [E16F], the protein stability index came to 2.35.

In the case of VAHVESLQEKSQCALREYVRSQYP [E16R], the protein stability index was found to be 3.65.

As for VAHVESLQEKSQCALKEYVRSQYP [E16K], the protein stability index amounted to 3.7.

As for VAHVESLQEKSQCALGEYVRSQYP [E16G], the protein stability index amounted to 3.21.

With VAHVESLQEKSQCALNEYVRSQYP [E16N], the protein stability index is 3.63.

On to VAHVESLQEKSQCALSEYVRSQYP [E16S], for which the protein stability index was determined as 3.37.

For the variant VAHVESLQEKSQCALWEYVRSQYP [E16W], the protein stability index is 2.23.

For VAHVESLREKSQCALEEYVRSQYP [Q8R], the protein stability index is 3.68.

On to VAHVESLYEKSQCALEEYVRSQYP [Q8Y], for which the protein stability index amounted to 2.73.

For VAHVESLEEKSQCALEEYVRSQYP [Q8E], the protein stability index amounted to 3.99.

For VAHVESLNEKSQCALEEYVRSQYP [Q8N], the protein stability index came to 3.75.

On to VAHVESLHEKSQCALEEYVRSQYP [Q8H], for which the protein stability index was determined as 3.49.

Take VAHVESLMEKSQCALEEYVRSQYP [Q8M]: the protein stability index is 2.98.

Turning to VAHVESLCEKSQCALEEYVRSQYP [Q8C], the protein stability index came to 2.99.

As for VAHVESLAEKSQCALEEYVRSQYP [Q8A], the protein stability index was determined as 3.03.

In the case of VAHVESLTEKSQCALEEYVRSQYP [Q8T], the protein stability index was 3.53.

Consider VAHVESLVEKSQCALEEYVRSQYP [Q8V], for which the protein stability index was determined as 3.02.

As for VAHVESLFEKSQCALEEYVRSQYP [Q8F], the protein stability index stood at 2.48.

As to VAHVESLLEKSQCALEEYVRSQYP [Q8L], the protein stability index is 2.89.

Consider VAHVESLKEKSQCALEEYVRSQYP [Q8K], for which the protein stability index came out at 3.88.

As for VAHVESLIEKSQCALEEYVRSQYP [Q8I], the protein stability index is 2.83.

As for VAHVESLGEKSQCALEEYVRSQYP [Q8G], the protein stability index was determined as 3.56.

In the case of VAHVESLWEKSQCALEEYVRSQYP [Q8W], the protein stability index stood at 2.27.

Consider VAHVESLDEKSQCALEEYVRSQYP [Q8D], for which the protein stability index is 3.71.

For VAHVESLPEKSQCALEEYVRSQYP [Q8P], the protein stability index turned out to be 3.45.

In the case of VAHVESLSEKSQCALEEYVRSQYP [Q8S], the protein stability index turned out to be 3.48.

With VAHVESLQEKSQCALENYVRSQYP [E17N], the protein stability index is 3.08.

Take VAHVESLQEKSQCALEAYVRSQYP [E17A]: the protein stability index was found to be 2.12.

Take VAHVESLQEKSQCALEDYVRSQYP [E17D]: the protein stability index worked out at 3.44.

For the variant VAHVESLQEKSQCALEIYVRSQYP [E17I], the protein stability index was 2.3.

Turning to VAHVESLQEKSQCALEHYVRSQYP [E17H], the protein stability index was 2.76.

For VAHVESLQEKSQCALEPYVRSQYP [E17P], the protein stability index was 3.5.

In the case of VAHVESLQEKSQCALEFYVRSQYP [E17F], the protein stability index amounted to 2.34.

Regarding VAHVESLQEKSQCALECYVRSQYP [E17C], the protein stability index worked out at 2.89.

For VAHVESLQEKSQCALEKYVRSQYP [E17K], the protein stability index came out at 3.81.

With VAHVESLQEKSQCALELYVRSQYP [E17L], the protein stability index is 2.49.

For VAHVESLQEKSQCALEMYVRSQYP [E17M], the protein stability index came to 2.58.

Turning to VAHVESLQEKSQCALEGYVRSQYP [E17G], the protein stability index came out at 3.45.

Take VAHVESLQQKSQCALEEYVRSQYP [E9Q]: the protein stability index is 2.62.

Take VAHVESLQPKSQCALEEYVRSQYP [E9P]: the protein stability index was 2.68.

VAHVESLQVKSQCALEEYVRSQYP [E9V]: the protein stability index is 2.72.

In the case of VAHVESLQHKSQCALEEYVRSQYP [E9H], the protein stability index is 3.23.

As to VAHVESLQFKSQCALEEYVRSQYP [E9F], the protein stability index amounted to 2.13.

Take VAHVESLQRKSQCALEEYVRSQYP [E9R]: the protein stability index worked out at 2.53.

The record behind these values is the supplement of paper PMC10567573.
